Test: yeast display, Sf9 membrane polyspecificity reagent, FACS + sequencing; frameworks hold sequencing errors
Method in brief: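 Sorting gates, low and high (top ~1%), were placed on anti-HA fluorescence to track expression and on streptavidin fluorescence to track reagent binding. A clone's polyreactivity label is taken from the gate it came out of. The reagent was 10% biotinylated, detergent-solubilized Sf9 membrane, applied for 1 hour at 4 °C to galactose-induced yeast display cells.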

| Sequence | polyreactivity (PSR sort gate) |
| --- | --- |
| QVQLVESGGGLVQAGGSLRLSCAASGSIFRGYTMGWYRQAPGKERELVATISWSGGSTYYADTVKGRFTISRDNAKNTVYLQMNSLKREDTAVYYCDARNQCRGYYWGEGTQVTVSS | high polyreactivity |
| QVQLVESGGGLVQAGGSLRLSCAASGSTSVPYTMGWYRQAPGKERELVAAISSSGGTTNYADSVKGRFTISRDNAKNTVYLQMNSLKPEDTAVYYCAAEYYQWVAYSWNEMYYWGQGTQVTVSS | low polyreactivity |
| QVQLVESGGGLVQAGVSLRISCAAAGFTFERYAMGWYRQAPGKERELVATISRRGGSTNYADSVKGRFTISRDNAKNTVYLQMNSLKPEDTAVYYCARTLYRGKSYHVHSKYDYWGQGTQVTVSS | high polyreactivity |
| QVQLVESGGGLVQAGGSLRLSCAASGLIFNIYAMGWYRQAPGKARELVATIRYSGGSTNYADSVKGRFTISRDNAKNTVYLQMNSLKPEVTAVYYCNAGYYPTGYDYWGQGTQVTVSW | low polyreactivity |
| QVQLVESGGGLVQAGGSLRLSCAASGSIFFYAMGWYRQAPGKERELVADITYTGGSKYADSVKGRFTISRDYAKNTVYLQMNSLKPEDTAVYYCAKLDGGLFDYWGQGTQVTVSS | low polyreactivity |
| QVQLVESGGGLVQAGGSLRLSCAASGSIFSSYVMVWYRQAPGKERELVAAISSSGGSTYYADSVKGRFTISRDNAKNTVYLQMNSLKPEDTAVYYCAARSYYSYYLMYYWGQGTQVTVSS | high polyreactivity |
| QVQLVESGGGLVQAGGSLRLTCAASGLTFEYYAMGWYRQAPGKERELVARISKSGVGTNYADSVKGRFTISRDHAKNTVYLQMNSLKPEDNAVYSCAARKYHYGYGYWGQGTQVTVSS | high polyreactivity |
| QVQLVESGGGLVQAGGSLRLSCAASGSIFDTYAMGWYRQAPGKERELVAAISSGGRTYYADSVKGRFSISRDNAKNTVYLQMNSLKPEDTAVYYCAVRPRPGYYYWGQGTQVSVSS | high polyreactivity |
| QVQLVESGGGLVQAGGSLRLSCAASGSIFYRNVMGWYRPAPGKERELVAVITSDGSTNYADSVKGRFTISRDNAKNTVYLQMNSLKPEVTAVYYCNAHYAFYGPGYPIYWIYEYWGQGTQVTVSS | low polyreactivity |
| QVQLVESGGGLVQAGGSLRLSCAASGRILHFYAMGWYRQAPGKERELVAAISKSGGSTYYADSVKGRFTISRDNAKNTVYLQMNSLKPEDTAVYYCAASFIRRGSYSTTSAPGRYYWGQGTQVTVSS | high polyreactivity |
| QVQLVESGGGLVQAGGSLRLSCAASGFIFRYYAMGWYRQAPGKEREFVAAISRSGSSTYYADSVKGRFTISRDNAKNTVYLQMNSLKPEDTAVYYCNARKYRKGYGYWGQGTQVTVSS | high polyreactivity |
| QVQLVESGGGLVQAGGSLRLSCAASGSNVYYAMGWYRQAPVKERELVAAINTSGGSTYYADSVKGRFTISRDNAKNTVYLQMNSLKPEDTAVYYCAAVYVGYITGFKRGYWGQGTQVTVSS | high polyreactivity |
| QVQLVESGGGLVQAGGSLRLICAASGRTYHGYAMGWYRQAPGKERELVAAITSSGARTYYADSVKGRFTLSRDNAKKTVYLQMNSLKPEDTAVYYCAVNWLRGMDWGQGTQVTVSS | high polyreactivity |
| QVQLVESGGGLVQAGGSLRLSCAASGFIFAYYAMGWYRQAPGKERELVAAISQSGTSTYYADSVKGRFTISRDNAKNTVYLQMNSLKPEDTAVYYCNVVPTGVHIFDYWGQGTQVTVSS | low polyreactivity |
| QVQLVESGGGLVQARGSLRLSCAASGRIFRYYAMGSYRQAPGKERELVASITSGARTSYADSVKGRFTISRDIAKNTVYLQMNSLKPEDTAVYYCAAGGRARTYYYWGQGTQVTVSS | high polyreactivity |
| QVQLVESGGGLVQAGGSLRLSCAASGRTFSRYAMGWYRQAPGKERELVAGISRSGTSTYYADSVKGRFTFSRDNAKNTVYLQMNSLKPEDTAVYYCAAYYEYRRDYWGQGTQVTVSS | high polyreactivity |

Source: the nanobody polyreactivity screen of Harvey et al. (2022)
